Measured values published in the supplement of paper PMC10724198.
± gives the standard deviation of the averaged measurements.

Test system: Saccharomyces cerevisiae
Experiment: protein stability index of tFT-peptide fusion (C-terminal peptide) (PSI (0-1 scale)); higher = more stable (slower turnover)
Details: genetic background: wild type; temperature: 37 C
Protocol: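 MPS profiling in S. cerevisiae of the tFT-X12 degron library: putative degron peptides plus stable controls, 12 aa, fused to the C-terminus of a sfGFP-mCherry timer. Cells are FACS-sorted into 8 mCherry/sfGFP bins and deep-sequenced. PSI runs from 0 (unstable) to 1 (stable). Backgrounds are wild type, das1Δ and doa10Δ at 30 °C, and wild type, das1Δ, cdc34-1 and cdc53-1 at 37 °C; 2-3 technical replicates each.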
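Note: PSI is a weighted mean of sequencing reads over stability bins, variants kept only with over 10 reads, mCherry proximal and sfGFP distal, peptide attached via GGGS linker.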

Sequence | protein stability index
LVACLGYAVYCL | 0.5568 ± 0.0018
LVCFFLFSLFYL | 0.5098 ± 0.0013
LVFCFRSLFLCS | 0.39121 ± 0.00016
LVFRIRNANRLV | 0.314 ± 0.03
LVFSVIPVLFVL | 0.461 ± 0.027
LVGTRTIFCFLH | 0.401 ± 0.0054
LVGWSWAACWLA | 0.396 ± 0.012
LVILRCAFPVYG | 0.51345 ± 9.4e-05
LVLFVCFSLFMR | 0.2732 ± 0.00043
LVLPAFLLLLYP | 0.367 ± 0.0037
LVLVLAVFGCHD | 0.477 ± 0.024
LVNSPSISSLWL | 0.719 ± 0.008
LVSLLYFIVSLF | 0.323 ± 0.014
LVTRVFVYFSIG | 0.514 ± 0.0066
LVVEALFYVLVS | 0.124 ± 0.014
LVVFFPVLPIFG | 0.58 ± 0.077
LVVRLFVWDVVW | 0.436 ± 0.0076
LWAVGWIIYFIV | 0.0941 ± 0.006
LWLISTYQLIGI | 0.536 ± 0.034
MALAVRVVWCGA | 0.295 ± 0.0084
MCFFVFVLFLFC | 0.377 ± 0.011
MLVWCLFWVACV | 0.258 ± 0.0057
MRMEGPLALSVR | 0.551 ± 0.006
MRVCLCLMLIVN | 0.238 ± 0.0029
NARNPKKNRDQI | 0.70322 ± 0.00025
NFFYLFLSFGFG | 0.552 ± 0.0068

Sequence | protein stability index
NGSCRVVMYIKG | 0.662 ± 0.017
NKEEHQQKQRIH | 0.698 ± 0.00079
NKTTKNKKRKLS | 0.173 ± 0.011
NKYNQFKWHINH | 0.295 ± 0.031
NRLHYSPLYTIY | 0.256 ± 0.0026
NSFASFVVVFVI | 0.472 ± 0.03
NTDRRNICKISS | 0.169 ± 0.0083
NTREGFIILARA | 0.5303 ± 0.0025
PACFPPPSPFAP | 0.725 ± 0.022
PFDTPSHPNPLF | 0.762 ± 0.019
PFGYYLFVPVCY | 0.364 ± 0.0044
PFLPFPPPLPAY | 0.5079 ± 0.0042
PFYAYHFSLSVY | 0.0924 ± 0.0037
PIFFFGRLLFFL | 0.499 ± 0.074
PLCCFFLLVCSH | 0.221 ± 0.014
PLFPPTDSPSPN | 0.709 ± 0.029
PLFVLTILLFLC | 0.179 ± 0.0024
PLGGLVILLLSS | 0.4074 ± 0.00071
PLLALTSWLFFV | 0.268 ± 0.0046
PLPHTPAPPPFP | 0.6992 ± 0.0033
PLSRLLPLYFLL | 0.0945 ± 0.018
PPHPLHIPRRLA | 0.436 ± 0.048
PPLSRLAVFIVV | 0.4823 ± 0.003
PPRPSPPPHPLP | 0.6974 ± 0.0035
PPVRCVRLPLSS | 0.689 ± 0.0054
PRFRALLLIPVR | 0.24 ± 0.033

Sequence | protein stability index
PRGFVRVDLLIF | 0.37 ± 0.022
PRGKGSSGELCV | 0.712 ± 0.012
PRPISRRTLILS | 0.554 ± 0.02
PRVPILVVFCSF | 0.463 ± 0.048
PSFVEVAFAVCC | 0.541 ± 0.019
PTKRLFNNNKKI | 0.408 ± 0.024
PWAQCVLLWVVV | 0.4776 ± 0.004
PWIASCRISFLL | 0.532 ± 0.029
QARVFWIIIGTA | 0.376 ± 0.023
QFLSLSLPFALF | 0.636 ± 0.052
QHIDTLAKTHIT | 0.7 ± 0.012
QTGRVRGFVVSG | 0.719 ± 0.028
RALCPVPLLASS | 0.553 ± 0.024
RCFLPVFCFVVF | 0.36 ± 0.0038
RDWCYFIRVCSV | 0.561 ± 0.01
RFACHDFVVLLC | 0.303 ± 0.017
RFFLFVFFCFGF | 0.437 ± 0.013
RFLCFDSVLTLC | 0.546 ± 0.02
RFQKTRIFRCLC | 0.137 ± 0.0058
RFTCCISLSFLM | 0.4341 ± 0.0021
RFTFSVVFCLSF | 0.47 ± 0.012
RGDWPVFIQVKA | 0.387 ± 0.023
RGGGGGTWVKMG | 0.217 ± 0.016
RHCCIVPLCRVR | 0.507 ± 0.0081
RHSFSRVKLIQF | 0.117 ± 0.0029
RILKEFKRIAVL | 0.139 ± 0.032

Test system: Saccharomyces cerevisiae
Experiment: as above
Details: genetic background: wild type; temperature: 30 C

Sequence | protein stability index
LVACLGYAVYCL | 0.46 ± 0.012
LVCFFLFSLFYL | 0.386 ± 0.037
LVFCFRSLFLCS | 0.34 ± 0.022
LVFRIRNANRLV | 0.309 ± 0.014
LVFSVIPVLFVL | 0.419 ± 0.087
LVGTRTIFCFLH | 0.3164 ± 0.002
LVGWSWAACWLA | 0.408 ± 0.016
LVILRCAFPVYG | 0.3963 ± 0.00083
LVLFVCFSLFMR | 0.309 ± 0.058
LVLPAFLLLLYP | 0.4134 ± 0.0013
LVLVLAVFGCHD | 0.42 ± 0.061
LVNSPSISSLWL | 0.586 ± 0.22
LVSLLYFIVSLF | 0.311 ± 0.007
LVTRVFVYFSIG | 0.413 ± 0.012
LVVEALFYVLVS | 0.219 ± 0.054
LVVFFPVLPIFG | 0.4965 ± 0.0017
LVVRLFVWDVVW | 0.347 ± 0.045
LWAVGWIIYFIV | 0.172 ± 0.024
LWLISTYQLIGI | 0.521 ± 0.032
MALAVRVVWCGA | 0.269 ± 0.014
MCFFVFVLFLFC | 0.33 ± 0.015
MLVWCLFWVACV | 0.236 ± 0.0031
MRMEGPLALSVR | 0.48 ± 0.011
MRVCLCLMLIVN | 0.238 ± 0.033
NARNPKKNRDQI | 0.524 ± 0.093
NFFYLFLSFGFG | 0.436 ± 0.022

Sequence | protein stability index
NGSCRVVMYIKG | 0.552 ± 0.08
NKEEHQQKQRIH | 0.461 ± 0.15
NKTTKNKKRKLS | 0.159 ± 0.014
NKYNQFKWHINH | 0.295 ± 0.0036
NRLHYSPLYTIY | 0.239 ± 0.0099
NSFASFVVVFVI | 0.34 ± 0.036
NTDRRNICKISS | 0.163 ± 0.044
NTREGFIILARA | 0.529 ± 0.065
PACFPPPSPFAP | 0.44 ± 0.034
PFDTPSHPNPLF | 0.744 ± 0.037
PFGYYLFVPVCY | 0.349 ± 0.0044
PFLPFPPPLPAY | 0.0909 ± 0.028
PFYAYHFSLSVY | 0.0344 ± 0.01
PIFFFGRLLFFL | 0.369 ± 0.016
PLCCFFLLVCSH | 0.246 ± 0.023
PLFPPTDSPSPN | 0.727 ± 0.03
PLFVLTILLFLC | 0.1706 ± 0.00068
PLGGLVILLLSS | 0.293 ± 0.014
PLLALTSWLFFV | 0.254 ± 0.008
PLPHTPAPPPFP | 0.508 ± 0.043
PLSRLLPLYFLL | 0.0966 ± 0.0083
PPHPLHIPRRLA | 0.226 ± 0.033
PPLSRLAVFIVV | 0.4605 ± 0.0023
PPRPSPPPHPLP | 0.746 ± 0.059
PPVRCVRLPLSS | 0.63 ± 0.26
PRFRALLLIPVR | 0.27 ± 0.012

Sequence | protein stability index
PRGFVRVDLLIF | 0.383 ± 0.064
PRGKGSSGELCV | 0.578 ± 0.15
PRPISRRTLILS | 0.472 ± 0.062
PRVPILVVFCSF | 0.402 ± 0.063
PSFVEVAFAVCC | 0.451 ± 0.058
PTKRLFNNNKKI | 0.308 ± 0.015
PWAQCVLLWVVV | 0.457 ± 0.0064
PWIASCRISFLL | 0.402 ± 0.0046
QARVFWIIIGTA | 0.343 ± 0.0078
QFLSLSLPFALF | 0.524 ± 0.036
QHIDTLAKTHIT | 0.606 ± 0.15
QTGRVRGFVVSG | 0.701 ± 0.048
RALCPVPLLASS | 0.502 ± 0.1
RCFLPVFCFVVF | 0.314 ± 0.018
RDWCYFIRVCSV | 0.383 ± 0.12
RFACHDFVVLLC | 0.289 ± 0.0045
RFFLFVFFCFGF | 0.436 ± 0.014
RFLCFDSVLTLC | 0.463 ± 0.024
RFQKTRIFRCLC | 0.18 ± 0.028
RFTCCISLSFLM | 0.489 ± 0.01
RFTFSVVFCLSF | 0.47 ± 0.038
RGDWPVFIQVKA | 0.418 ± 0.05
RGGGGGTWVKMG | 0.258 ± 0.055
RHCCIVPLCRVR | 0.464 ± 0.045
RHSFSRVKLIQF | 0.113 ± 0.033
RILKEFKRIAVL | 0.168 ± 0.031
